Here are results for 37 sequences from the supplement of paper PMC10201428.

In data set [1] the test system is VchCAST RNA-guided transposition machinery (E. coli BL21(DE3) host, lacZ target). Nature of the data set: relative integration efficiency (T-LR orientation) vs wild-type transposon end (log2 (normalized fold change)); transposon end mutated: right end (5 bp flank + 75 bp right end); higher = more efficient transposition. How it is done:
(§1)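 Pooled, barcoded VchCAST (Tn6677) mini-transposon donor libraries; each variable transposon-end sequence sits in a fixed pDonor mini-transposon context (10-bp barcode and cargo not included). Left- or right-end libraries were co-transformed with pEffector (TniQ-Cascade, TnsABC, lacZ crRNA, T7, 0.1 mM IPTG) into E. coli BL21(DE3) and grown 18 h at 37 C. T-LR and T-RL junction amplicons were sequenced; output/input barcode fold change was normalised to the mean of four wild-type barcodes and log2-transformed. Two biological replicates; zero-count/undetected variants carry floor values (-10 / -15), censored here. Barcode uncoupling by PCR recombination adds noise.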

For data set [2] the test system is unchanged. Nature of the data set: relative integration efficiency (T-RL orientation) vs wild-type transposon end (log2 (normalized fold change)); transposon end mutated: right end (5 bp flank + 75 bp right end); higher = more efficient transposition. On the procedure:
as §1

± gives the standard deviation of the averaged measurements.

In the case of “AACGGTGTTGATACAACCATAAAATGATAATTACACCCATAAATTGATAATTATCACACCCATAAATTGATATTGCCTCTGATCATAGTCAGACCAACATTGCTACGACCCGTATTCGCACCGACAC”, the entries for the “relative integration efficiency (log2)” value in data set [1] and in data set [2] were 0.221 ± 0.4 and -0.153 ± 0.0083, respectively.
In the same order, the values of “AACTTTGTTGATACAACCATAAAATGATAATTACACCCATAAATTGATAATTATCACACCCATAAATTGATATTGCCTCTGATCATAGTCAGACCAACATTGCTACGACCCGTATTCGCACCGACAC” are 0.0855 ± 0.25 and -0.217 ± 0.078.
As to “ACATTTGAACTTACAACCATAAAATGATAATTACACCCATAAATTGATAATTATCACACCCATAAATTGATATTGCCTCTGATCATAGTCAGACCAACATTGCTACGACCCGTATTCGCACCGACAC”, in data set [2], the “relative integration efficiency (log2)” value is -5.07 ± 0.78.
In the case of “ACATTTGTAAAAAAAACCATACGTTGATTTTACGAAACCATACGCTGAAATAAAAACAACCATACCTTGAAATTGCTTATGATCATAGTCAGACCAACATTGCTACGACCCGTATTCGCACCGACAC”, the “relative integration efficiency (log2)” value in data set [2] is -8.13 ± 1.3.
As to “ACATTTGTAAAAAAAACCATACGTTGATTTTACGAAACCATACGCTGAAATAATCACAACCATAAATTGATATTGCCTCTGATCATAGTCAGACCAACATTGCTACGACCCGTATTCGCACCGACAC”, the “relative integration efficiency (log2)” value in data set [2] is -6.87 ± 0.53.
On the same count and under the same terms, in the case of “ACATTTGTAAAAAAAACCATACGTTGATTTTACGAAACCATACGCTGAAATAATCACAACCATACCTTGAAATTGCCTCTGATCATAGTCAGACCAACATTGCTACGACCCGTATTCGCACCGACAC” it was -7.16 ± 0.43.
Still for that read-out and setting: in the case of “ACATTTGTAAAAAAAACCATACGTTGATTTTACGAAACCATACGCTGAAATAATCACACCCATAAATTGAAATTGCCTCTGATCATAGTCAGACCAACATTGCTACGACCCGTATTCGCACCGACAC” it was -5.81 ± 0.093.
With “ACATTTGTAAAAAAAACCATACGTTGATTTTACGAAACCATACGCTGAAATAATCACACCCATAAATTGATATTGCCTCTGATCATAGTCAGACCAACATTGCTACGACCCGTATTCGCACCGACAC”, in data set [2], the “relative integration efficiency (log2)” value was -7.11 ± 0.15.
Same read-out and setting: as for “ACATTTGTTAATAAAACCATACGTTGATTTTACGAAACCATACGCTGAAATAATCACACCCATAAATTGATATTGCCTCTGATCATAGTCAGACCAACATTGCTACGACCCGTATTCGCACCGACAC”, the figure is -6.57 ± 0.26; as for “ACATTTGTTCAACCATAAAATGATAATTACACCCATAAATTGATAATTATCACACCCATAAATTGATATTGCCTCTGATCATAGTCAGACCAACATTGCTACGACCCGTATTCGCACCGACACTGAC”, -7.3 ± 0.12; as for “ACATTTGTTCATACAACCCTAAAATGATAATTACACCCATAAATTCATAATTATCACCCCCAATTTAACTATAACGCTCTGATCATAGTCAGACCAACATTGCTACGACCCGTATTCGCACCGACAC”, -5.3 ± 0.43.
For the sequence “ACATTTGTTGAAAAAACCATACGTTGATTTTACGAAACCATACGCTGAAATAATCACACCCATAAATTGATATTGCCTCTGATCATAGTCAGACCAACATTGCTACGACCCGTATTCGCACCGACAC”, the “relative integration efficiency (log2)” value in data set [2] is -6.48 ± 0.15.
For the sequence “ACATTTGTTGATAACCAACGCCCCGTCGCCGGCACAAACGCCCGGTCGCCGGCGACACAAACGCCCGGTCGCGGTAAGAGGATCATAGTCAGACCAACATTGCTACGACCCGTATTCGCACCGACAC”, in data set [2], the “relative integration efficiency (log2)” value was -6.24 ± 0.19.
For the sequence “ACATTTGTTGATAACCAACGCCCCGTCGCCGGCCACCCATAAATTGATAATTATCACACCCATAAATTGATATTGCCTCTGATCATAGTCAGACCAACATTGCTACGACCCGTATTCGCACCGACAC”, in data set [2], the “relative integration efficiency (log2)” value is -7.56 ± 0.64.
On the same count and under the same terms, in the case of “ACATTTGTTGATACAACACGCCCCGTCGCCGGCACAAACGCCCGGTCGCCGGCGACACAAACGCCCGGTCGCGGTAAGAGGATCATAGTCAGACCAACATTGCTACGACCCGTATTCGCACCGACAC” it was -6.42 ± 0.17; in that of “ACATTTGTTGATACAACCATAAAATGATAATTAATAATTATTTATAATCAGCAACACCCATAAATTGATAATTATCACACCCATAAATTGATATTGCCTCTGATCATAGTCAGACCAACATTGCTAC”, -3.61 ± 0.38; in that of “ACATTTGTTGATACAACCATAAAATGATAATTAATAATTATTTATAATCAGCAACTTAACCACAAAACACCCATAAATTGATAATTAACAAAACACCCATAAATTGATATTGCTGTGAATCGAGTAT”, -5.86 ± 0.28.
Consider “ACATTTGTTGATACAACCATAAAATGATAATTAATAATTATTTATAATCAGCAACTTAACCACAAAACACCCATAAATTGATAATTAACAAACACCCATAAATTGATATTGCCTCTGATCATAGTCA”, for which, in data set [2], the “relative integration efficiency (log2)” value was -5.35 ± 0.69.
Take “ACATTTGTTGATACAACCATAAAATGATAATTAATAATTATTTATAATCAGCAACTTAACCACAAAACACCCATAAATTGATAATTAACACACCCATAAATTGATATTGCCTCTGATCATAGTCAGA”: the “relative integration efficiency (log2)” value in data set [2] is -5.33 ± 0.24.
Take “ACATTTGTTGATACAACCATAAAATGATAATTAATAATTATTTATAATCAGCAACTTAACCACAAAACACCCATAAATTGATAATTATCACACCCATAAATTGATATTGCCTCTGATCATAGTCAGA”: in data set [2], the “relative integration efficiency (log2)” value is -4.6 ± 1.
For the sequence “ACATTTGTTGATACAACCATAAACGTCGCCGGCACAAACGCCCGGTCGCCGGCGACACAAACGCCCGGTCGCGGTAAGAGGATCATAGTCAGACCAACATTGCTACGACCCGTATTCGCACCGACAC”, the “relative integration efficiency (log2)” value in data set [2] was -6.69 ± 0.61.
The same measure, in the same setting: in the case of “ACATTTGTTGATACAACCATACCCGGATAATTACACCCATACCGGGATAATTATCACACCCATACCGGGATATTGCCTCTGATCATAGTCAGACCAACATTGCTACGACCCGTATTCGCACCGACAC” it was -6.7 ± 0.28; in that of “ACATTTGTTGATACAACCATACCCGTATAATTACACCCATACCGGTATAATTATCACACCCATACCGGTATATTGCCTCTGATCATAGTCAGACCAACATTGCTACGACCCGTATTCGCACCGACAC”, -8.04 ± 1.3; in that of “ACATTTGTTGATACAACCATATTTACATAATTACACCCATATTAACATAATTATCACACCCATATTAACATATTGCCTCTGATCATAGTCAGACCAACATTGCTACGACCCGTATTCGCACCGACAC”, -7.03 ± 0.43.
Turning to “ACATTTGTTGATACAACCATCCCCGTCGCCGGCACAAACGCCCGGTCGCCGGCGACACAAACGCCCGGTCGCGGTAAGAGGATCATAGTCAGACCAACATTGCTACGACCCGTATTCGCACCGACAC”, in data set [2], the “relative integration efficiency (log2)” value is -7.485 ± 0.063.
As for “ACATTTGTTGATACAACCCGCCCCGTCGCCGGCACAAACGCCCGGTCGCCGGCGACACAAACGCCCGGTCGCGGTAAGAGGATCATAGTCAGACCAACATTGCTACGACCCGTATTCGCACCGACAC”, the “relative integration efficiency (log2)” value in data set [2] was -8.51 ± 0.73.
Take “ACATTTGTTGATACCCAACGCCCCGTCGCCGGCACAAACGCCCGGTCGCCGGCGACACAAACGCCCGGTCGCGGTAAGAGGATCATAGTCAGACCAACATTGCTACGACCCGTATTCGCACCGACAC”: the “relative integration efficiency (log2)” value in data set [2] is -6.49 ± 0.44.
“ACATTTGTTGATAGTTGGTATTTTACTATTAATCACCCATAAATTGATAATTATCACACCCATAAATTGATATTGCCTCTGATCATAGTCAGACCAACATTGCTACGACCCGTATTCGCACCGACAC”: the “relative integration efficiency (log2)” value in data set [2] is -7.24 ± 1.
The same measure, in the same setting: in the case of “ACATTTGTTGATATAATTATCATTTTATGGTTGCAACCATAAAATGATAATTATCATAATTATCATTTTATGGTTGCTCTGATCATAGTCAGACCAACATTGCTACGACCCGTATTCGCACCGACAC” it was -2.78 ± 0.3; in that of “ACATTTGTTGATATAATTATCATTTTATGGTTGTAATTATCATTTTATGGTTGTCACAACCATAAAATGATAATTACTCTGATCATAGTCAGACCAACATTGCTACGACCCGTATTCGCACCGACAC”, -6.264 ± 0.019; in that of “ACATTTGTTGATATGTCAACCATAAAATGATAATTACACCCATAAATTGATAATTATCACACCCATAAATTGATATTGCCTCTGATCATAGTCAGACCAACATTGCTACGACCCGTATTCGCACCGA”, -2.13 ± 0.23.
Turning to “ACATTTGTTGATATGTTGCAACCATAAAATGATAATTACACCCATAAATTGATAATTATCACACCCATAAATTGATATTGCCTCTGATCATAGTCAGACCAACATTGCTACGACCCGTATTCGCACC”, in data set [2], the “relative integration efficiency (log2)” value was -6.84 ± 0.38.
For the sequence “ACATTTGTTGATGCAACCATAAAATGATAATTAATAATTATTTATAATCAGCAACTTAACCACAAAACACCCATAAATTGATAATTAACAAAACACCCATAAATTGATATTGCCTCTGATCATAGTC”, the “relative integration efficiency (log2)” value in data set [2] is -4.62 ± 0.92.
“ACATTTGTTGATGCAACCATAAAGTGATATTTAATAATTATTTATAATCAGCAACTTAACCACAAAACAACCATATATTGATATCTCACAAAACAACCATAAGTTGATATTTTCTCTGATCATAGTC”: the “relative integration efficiency (log2)” value in data set [1] was less than -10.
On to “ACATTTGTTGCAACCATAAAATGATAATTACACCCATAAATTGATAATTATCACACCCATAAATTGATATTGCCTCTGATCATAGTCAGACCAACATTGCTACGACCCGTATTCGCACCGACACTGA”, for which the “relative integration efficiency (log2)” value in data set [2] is -7.1 ± 0.91.
With “CAAAATGTAAAAAAAACCATACGTTGATTTTACGAAACCATACGCTGAAATAAAAACAACCATACCTTGAAATTGCTTATAAAGTGTACAACACTTGAGAAAGTTTACTACAGGTATGCACCGACAC”, the “relative integration efficiency (log2)” value in data set [1] is less than -10.
As to “CAAAATGTTGATAAAACCATACGTTGATTTTACGAAACCATACGCTGAAATAAAAACAACCATACCTTGAAATTGCTTATAAAGTGTACAACACTTGAGAAAGTTTACTACAGGTATGCACCGACAC”, the “relative integration efficiency (log2)” value in data set [2] was -9.08 ± 1.1.
